Source: the supplement of paper PMC9170038

System: K4 kissing-loop RNA reporter
Experiment: apparent KD of K4 kissing-loop reporter; higher = weaker reporter binding
Conditions: Eterna round: R107
Method: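 RNA-MaP round R107: designed RNA switches with theophylline, tryptophan, arginine or FMN aptamers are transcribed on-chip within common flanks. They are titrated with a labelled K4 kissing-loop RNA reporter in RNA-MaP buffer (100 mM Tris pH 7.5, 80 mM KCl, 4 mM MgCl2), without ligand or with the indicated ligand. Median apparent KD per design.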

[1] = input ligand: theophylline 20 uM
[2] = input ligand: tryptophan 2.4 mM
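Also: bound reporter read as fluorescence of individual clusters on recovered sequencing chips by microscopy, with normalized cluster intensities fitted with a binding model.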

Sequence	apparent KD of K4 kissing-loop reporter (input ligand: FMN 200 uM) [nM]	apparent KD of K4 kissing-loop reporter (input ligand: arginine 13.2 mM) [nM]	apparent KD of K4 kissing-loop reporter (input ligand: none) [nM]	apparent KD of K4 kissing-loop reporter [1] [nM]	apparent KD of K4 kissing-loop reporter [2] [nM]
UAAACCAAAUUACGUCACCUUGUCCAAUCUAAGGAUAUGUGAUUCCACAGAAGGUAGCCACGGGAGUGAUGUUCGCGUUAAGGCG [theeternabot_exclusion_KL_FMN_A_31]	475	388	465	460	419
UAACUUGCAGUGAUGUUGCAAGAACUGGAUACCAGCAUGGAAACAUGCCCUUGGCAGCCAGAAGCUGGCUGACUGCAAGGUCAGC [Design4]	148	142	124	136	123
UAAGAGGACCACUGCAAGAGUCCUCGAAUACGAGGACCGGUACGGCCGCCACUCGAUAACUUGCAGUGAUGUUGCAAGUAAGAAU [(T)''-(K)'-(T)'-(T1)-(T2)-(K1)-(K2)_Design1]	124	129	119	144	84.4
UAAUAUAAUCUGUCGUAAACAAUAAUUAGUCAGGAUAUCGUAUAUUCGAGAAGGGACACUAUCUAGUGAUGUUAGAUAUUUCGUU [JR_SSFMNA_Sub026]	45.5	76.4	53.4	67.5	47.6
UAAUAUAAUCUGUCGUUUACAAUAUUUAGUCAGGAUAUCGUAUAUUCGAGAAGGGACACUAUCUAGUGAUGUUAGAUAUUUCGUU [JR_ExcFMNA_Sub015]	51	81.4	59.6	76.6	54.6
UAAUCCUAGUGAUAAUUAUCAAGUGGUGGGCGAGGACCGGUACGGCCGCCACUCGAAUAUGCAGUGAUGUUGUAAUCCGGAUAAU [Exclusion - Tryptophan A (Freestyle 7)]	639	636	534	715	441
UAAUGCAUGACGGCCGCCACUAGUACUGGAGUGAUGUUGUGGUACGGCGGCAGUUUAGGGUGGACUAGGACCGGGUCAUGCAUAU [KL-XTryp-B10 #analogue]	461	314	339	305	356
UAGAGAUCGAGAAGGAGCGAGAAAGCUAGUACAUAUGUACUAGCAAAGCAGUGAUGUUGCACUCAGGUAGGUCGCUCGAUCUCAU [AK1.1 SS Arginine B]	337	267	366	432	305
UAGAGCAUCGCAGGAUAUCCUGCUUAACGUUGGAUUCCAGUGAUGUUGGAAAGCCGGCCUAGGGUAGGAGAAGGGCGGAUUUGAA [Edvean]	171	151	215	322	149
UAGUAGCUCUCGGCCGCCACUCCUCAGUGAUGUUGAGAUAUUAAGAGCCAAUUGGCUCAUAUAAAGAGGACCGGGAGAGCUACAU [AK4.2 SS Tryptophan B]	355	339	365	350	126
UAGUAGUAGCGAGGAUAUGCAAUAGGCGAGUGAUGUUCGCCAGGCGGGCGUCGCAUAUAAGAAAGAGCAGAAGGCGCUAGGUAGA [SameState - FMN B / A]	814	303	329	397	399
UAGUCGCUAGUUAGCGACAACGGGUCAGAUACCAGACUAGCGAUAGUCCCUUGGCAGCUGAAGUUCAGUGAUGUUGAACGGAUUA [Theo A SS t10]	192	296	265	230	207
UAGUCUCGAGUCUGAGAUUACGGGUCAGAUACCAGACUAGAGAUAGUCCCUUGGCAGCUGAAGUUCAGUGAUGUUGAACGGAUUA [Theo B SS t10a]	501	394	441	510	377
UAUCGAGUGAUGUUCGAUGUAGUCCAUUCAGAGGAUAUAGGAUUGACUAGAAGGCUGAAACCUUCUUCGAGUGAUGUUCGAGGAU [Same State FMN A GF4]	92.5	39.6	58.9	45.2	47.4
UAUCGAGUGAUGUUCGAUGUAGUUCAUUCAGAGGAUAUAGGAUGGGCUAGAAGGCUGAAAAGUGCUUCGAGUGAUGUUCGAAGAU [Exclusion FMN A GF 6]	64.6	40.9	53.7	40.9	44.7
UAUGAAUGUGGAGGAUAUUGAUUGAAUCUUGGUCUGGAGUGAUGUUCCGGGAAGCCUUGGAUUCAUCGAGAAGGCCAUGGAUAGU [#03 K4 FMN B Same State]	111	111	118	109	95.9
UAUUGUACAGGGAAAUUGAUAAUAGACUUACGAGGACCGGUACGGCCGCCACUCGAUAGUCGAGUGAUGUUCGAAUGCUAUUGAU [Attempt 1]	218	210	211	314	132
UCCUGCAAUCGGCCACGAAAGUGGAUUGAUACCAGAGUCGAAAGACUCCCUUGGCAGCGAGUGAUGUUCGAAGCAGGUAAAUAAA	464	380	502	514	432
UCCUGCAAUCUGCCACGAAAGUGGGUUGAUACCAGAGUCGAAAGACUCCCUUGGCAGCGAGUGAUGUUCGUUGCAGGUGUAUAAA [MatMod 10 - Jieux - Exclusion - Theophylline A]	195	184	194	209	179
UCGGACCCUGGAGGAUAUGAGUCUAGUGAUGUUAGGCGGUCCAUGCGCGUGGCGCGUUAUGCCCUUUUAGAAGGCCAGGGUCCGA [#2 Exclusion - FMN B Attempt #15 (HarryS)]	113	72.4	104	90.7	84.6
UCUCAAGCACAGUGAUGUUGUGCUUGGGAAGGAGCGCGUGGGAACGCAGGUAGGUCGCCCGGUAAAUCGCGUCAAUGCUAGAGGC [Arg A Ex t5]	118	110	99.9	100	116

Sequence	apparent KD of K4 kissing-loop reporter (input ligand: FMN 200 uM) [nM]	apparent KD of K4 kissing-loop reporter (input ligand: arginine 13.2 mM) [nM]	apparent KD of K4 kissing-loop reporter (input ligand: none) [nM]	apparent KD of K4 kissing-loop reporter [1] [nM]	apparent KD of K4 kissing-loop reporter [2] [nM]
UCUGGUAUAUCUGAUACCAGAGAAUAGAAUCAAUUGAAUAUGGAGUGAUGUUCCAUAAAACUCCCUUGGCAGCAGAUAAUCAUAU [Same State Theophylline B GF 22]	113	167	125	172	112
UGACAUUGCUCAGAUACCAGACAAGAGGAUCACCCUUGUGCCAACGUACAAAUAAUAAAUGUCCCUUGGCAGCUGAGCAAUGUCU [TheoBX 15]	64.1	31.9	58.2	92.8	47.5
UGACAUUGCUCAGAUACCAGACCUGAGGAUCACCCGGGUGCCAAACGUACAAUAAUAAAGGUCCCUUGGCAGCUGAGCAAUGUCU [TheoBX 14]	56.2	39.7	103	68.4	83.9
UGACUGGACUGAAGGAGCGCGAAACUCCUAGUGAUGUUAGGACAACGAGACAAAGUCUCGACGCAGGUAGGUCGCAGUCUAGUCU	148	111	131	144	132
UGACUGGACUGAAGGAGCGCUAAAACUCCUAGUGAUGUUAGGAAAACGAGACAAAGUCUCGAGCAGGUAGGUCGCAGUCUAGUCU [ArgBS 21 #SwitchBubble #StaticStem]	142	119	131	148	128
UGACUGGACUGAAGGAGCGUUGAAGGAGCGUAGUGAGUGAUGUUCACUACAGGUAGGUCGCAGCAGGUAGGUCGCAGUCUAGUCU [ArgBS 25 #DoubleAptamer #SwitchBubble]	149	107	101	83	145
UGAGUGAUGUUCAAGGACUAGAUCUAAAUAAAGGAUAUAGCAUACGCUAGAAGGUUAAAAUUUCUGGAUCCCAGUUUAAACCUUU [theeternabot_sameState_KL_FMN_A_49]	246	154	222	222	195
UGAUACCAGACGGCCGCCACUCCCGCAGGUCAAAGACCUGCGAAGAUGGUUCUUCAGUGAUGUUGGAGGACCGGGUCUGGUAUCU [FiskerMod 23 - Jieux - Exclusion - Tryptophan B]	173	128	137	140	314
UGAUACCAGACGGCCGCCACUCCCGUAAGUCAAAGACUUACGAAGAGAGUUUUUCAGUGAUGUUGGAGGACCGGGUCUGGUAUCU [FiskerMod 16 - Jieux - Exclusion - Tryptophan B]	838	618	870	850	721
UGAUACCAGACGGCCGCCACUGGGACCGGGAGUGAUGUUCCAAAUAAAAGAAACUCGGCCGCCACUAGGACCGGGUCUGGUAUCU [TrypBX 30 #DoubleAptamer #SwitchBubble]	622	278	379	479	110
UGAUACCAGACGGCCGCCACUUCCGUAAGUCAAAGACUUGCCAAGGGAAUCGUCCAGUGAUGUUGGAGGACCGGGUCUGGUAUCU [FiskerMod 5 - Jieux - Exclusion - Tryptophan B]	677	491	725	511	550
UGAUACCAGACGGCCGCCACUUCUGCAAGUCAAAGACUUGCCAAGGGAAUCGUCCAGUGAUGUUGGAGGACCGGGUCUGGUAUCU [FiskerMod 3 - Jieux - Exclusion - Tryptophan B]	880	445	817	585	668
UGAUACCAGACUGAUACCAGCAAGUGAUGUUUGCUGAUCUAAAGCAGUCAAAGACUGCCUUGCCCUUGGCAGCAGUCUGGUAUCU [TheoBX 25 #SwitchBubble #StaticStem]	92.3	81.7	96.6	156	81.1
UGAUACCAGACUGAUACCAGCUAGUGAUGUUAGCUAAAAUCAGGGUCAAAGACCCUGUCUGGCCCUUGGCAGCAGUCUGGUAUCU [TheoBX 10 #SwitchBubble #StaticStem]	137	120	134	191	120
UGAUACCAGGCGGCCGCCACUCCCGCAGGUCAAAGACCUGCGAAGCUGGUUCUUCAGUGAUGUUGGAGGACCGGGCCUGGUAUCU [FiskerMod 25 - Jieux - Exclusion - Tryptophan B]	253	211	236	232	494
UGAUAGGACAGAAGGAGCGAGGAGUGAUGUUCCUCAAAAGGUCUAGCAAAGCUAGACCCUCCUCAGGUAGGUCGCUGUCCUAUCU [ArgBX 1 #Palindromic #SwitchBubble #StaticStem]	174	162	167	232	158
UGAUAGGACAGAAGGAGCGGAAGCUAGUCAAAGACUAGCAAACGUUAAACAGGAGUGAUGUUCCAGGUAGGUCGCUGUCCUAUCU [ArgBX 23 #SwitchBubble #StaticStem]	124	115	126	133	119
UGAUAGGACAGAAGGAGCGGAAGCUAGUCAAAGACUAGCACGUUAAUAACAGGAGUGAUGUUCCAGGUAGGUCGCUGUCCUAUCU [ArgBX 24 #SwitchBubble #StaticStem]	126	118	136	118	113
UGAUAGGACAGAAGGAGCGGAAGUGAUGUUUCCAAAAGGUAAGGUCGACAAAGUCGACCCUUCCAGGUAGGUCGCUGUCCUAUCU [ArgBX 11 #Palindromic #SwitchBubble #StaticStem]	88.5	102	92.8	89.2	82.4
UGAUAGGACAGAAGGAGCGGCAGUGAUGUUGCCAAAAGGGUAAGGUGUCAAAAGACACCCUGCCAGGUAGGUCGCUGUCCUAUCU	166	173	162	163	134
